Results on one substance are retold here after paper doi:10.1101/2024.12.19.629503.

The target of this assay is di-nucleosome of X. laevis histone octamers on two Widom 601 sequences (unmodified) (X. laevis). Description: cryo-EM structure.

On to “DNMT3A2/3B3 hetero-tetramer (from UniProt Q9UBC3-3 1-770) (complex)”, for which the stoichiometry N (hetero-tetramers per di-nucleosome) came to 2.
